Reference: PMC12990809

Columns and labels:
Assay in all cases: pulldown
[1] = target: T1, PK25912.1 V2I;D3L;F4R (Cannabis sativa) (UniProt A0A803Q7P0); conditions: 20 nM protein, 1.5 uM RNA pool; 20 mM HEPES pH 7.8, 70 mM KCl, 10 mM NaCl, 10% glycerol, 2 mM DTT, 0.1 ug/uL BSA; 30 min, 4 C
T1 sequence: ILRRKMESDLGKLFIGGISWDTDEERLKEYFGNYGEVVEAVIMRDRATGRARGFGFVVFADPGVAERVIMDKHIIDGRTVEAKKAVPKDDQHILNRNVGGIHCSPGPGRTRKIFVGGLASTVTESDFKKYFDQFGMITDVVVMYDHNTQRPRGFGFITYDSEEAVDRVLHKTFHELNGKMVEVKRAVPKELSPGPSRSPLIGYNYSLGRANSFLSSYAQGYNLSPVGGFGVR

[2] = target: T2, PK11774.1 (Cannabis sativa) (UniProt A0A7J6FQM5); conditions: 20 nM protein, 1.5 uM RNA pool; 20 mM HEPES pH 7.8, 70 mM KCl, 10 mM NaCl, 10% glycerol, 2 mM DTT, 0.1 ug/uL BSA; 30 min, 4 C
T2 sequence: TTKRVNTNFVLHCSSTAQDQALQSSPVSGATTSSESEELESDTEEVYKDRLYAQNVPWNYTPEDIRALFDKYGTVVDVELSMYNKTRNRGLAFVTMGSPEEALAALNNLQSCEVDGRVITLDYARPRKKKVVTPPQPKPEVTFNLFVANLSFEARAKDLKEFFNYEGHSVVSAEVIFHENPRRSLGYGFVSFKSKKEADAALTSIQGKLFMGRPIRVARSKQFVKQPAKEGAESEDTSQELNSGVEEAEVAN

[3] = target: SNRPB2 (Meleagris gallopavo) (UniProt G1N364); conditions: 20 nM protein, 1.5 uM RNA pool; 20 mM HEPES pH 7.8, 70 mM KCl, 10 mM NaCl, 10% glycerol, 2 mM DTT, 0.1 ug/uL BSA; 30 min, 4 C
[4] = target: T3, NEMVEDRAFT_v1g214798 (Nematostella vectensis) (UniProt A7SN30); conditions: 20 nM protein, 1.5 uM RNA pool; 20 mM HEPES pH 7.8, 70 mM KCl, 10 mM NaCl, 10% glycerol, 2 mM DTT, 0.1 ug/uL BSA; 30 min, 4 C
T3 sequence: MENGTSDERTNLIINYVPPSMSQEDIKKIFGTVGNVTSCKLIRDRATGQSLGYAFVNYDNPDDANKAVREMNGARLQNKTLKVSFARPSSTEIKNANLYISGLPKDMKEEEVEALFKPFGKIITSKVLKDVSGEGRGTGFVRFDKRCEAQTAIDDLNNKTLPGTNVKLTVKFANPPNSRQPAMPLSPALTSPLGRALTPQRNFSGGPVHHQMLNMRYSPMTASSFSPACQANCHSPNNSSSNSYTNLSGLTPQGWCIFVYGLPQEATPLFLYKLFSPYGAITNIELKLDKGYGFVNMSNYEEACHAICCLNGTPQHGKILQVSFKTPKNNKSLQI

u2af2b (Danio rerio) = u2af2b (Danio rerio) (UniProt A0ACM8Q3Q6); conditions: 20 nM protein, 1.5 uM RNA pool; 20 mM HEPES pH 7.8, 70 mM KCl, 10 mM NaCl, 10% glycerol, 2 mM DTT, 0.1 ug/uL BSA; 30 min, 4 C
HNRNPC (Homo sapiens) = HNRNPC (Homo sapiens) (UniProt P07910); conditions: 20 nM protein, 1.5 uM RNA pool; 20 mM HEPES pH 7.8, 70 mM KCl, 10 mM NaCl, 10% glycerol, 2 mM DTT, 0.1 ug/uL BSA; 30 min, 4 C (protocol of this paper; not …); cited from earlier work
[5] = target: T4, CPEB1 E201G;P348T;C438Y (Homo sapiens) (UniProt Q9BZB8); conditions: 20 nM protein, 1.5 uM RNA pool; 20 mM HEPES pH 7.8, 70 mM KCl, 10 mM NaCl, 10% glycerol, 2 mM DTT, 0.1 ug/uL BSA; 30 min, 4 C
T4 sequence: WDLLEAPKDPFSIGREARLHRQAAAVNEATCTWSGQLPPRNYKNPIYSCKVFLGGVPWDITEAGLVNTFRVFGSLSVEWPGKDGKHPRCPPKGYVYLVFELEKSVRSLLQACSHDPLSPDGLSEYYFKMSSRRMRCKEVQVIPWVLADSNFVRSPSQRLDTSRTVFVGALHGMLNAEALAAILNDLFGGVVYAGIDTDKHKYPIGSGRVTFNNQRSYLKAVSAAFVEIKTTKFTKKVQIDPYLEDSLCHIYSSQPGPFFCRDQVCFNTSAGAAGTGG

[6] = target: T5, nrd1 (Schizosaccharomyces pombe) (UniProt Q09702); conditions: 20 nM protein, 1.5 uM RNA pool; 20 mM HEPES pH 7.8, 70 mM KCl, 10 mM NaCl, 10% glycerol, 2 mM DTT, 0.1 ug/uL BSA; 30 min, 4 C
T5 sequence: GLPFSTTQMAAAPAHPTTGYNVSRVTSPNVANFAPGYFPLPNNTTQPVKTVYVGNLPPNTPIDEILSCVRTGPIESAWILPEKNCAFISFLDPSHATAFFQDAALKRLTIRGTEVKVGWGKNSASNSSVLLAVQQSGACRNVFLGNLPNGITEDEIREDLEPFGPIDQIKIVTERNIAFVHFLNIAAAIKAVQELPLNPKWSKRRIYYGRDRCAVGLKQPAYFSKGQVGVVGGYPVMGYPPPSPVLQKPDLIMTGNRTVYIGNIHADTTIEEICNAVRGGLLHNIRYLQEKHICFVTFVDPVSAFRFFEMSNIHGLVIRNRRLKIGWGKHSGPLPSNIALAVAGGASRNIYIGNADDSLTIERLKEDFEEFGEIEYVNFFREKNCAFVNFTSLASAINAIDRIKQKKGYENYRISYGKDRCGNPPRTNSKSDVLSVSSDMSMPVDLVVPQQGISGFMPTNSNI

[7] = target: T6, mei2 (Schizosaccharomyces pombe) (UniProt P08965); conditions: 20 nM protein, 1.5 uM RNA pool; 20 mM HEPES pH 7.8, 70 mM KCl, 10 mM NaCl, 10% glycerol, 2 mM DTT, 0.1 ug/uL BSA; 30 min, 4 C
T6 sequence: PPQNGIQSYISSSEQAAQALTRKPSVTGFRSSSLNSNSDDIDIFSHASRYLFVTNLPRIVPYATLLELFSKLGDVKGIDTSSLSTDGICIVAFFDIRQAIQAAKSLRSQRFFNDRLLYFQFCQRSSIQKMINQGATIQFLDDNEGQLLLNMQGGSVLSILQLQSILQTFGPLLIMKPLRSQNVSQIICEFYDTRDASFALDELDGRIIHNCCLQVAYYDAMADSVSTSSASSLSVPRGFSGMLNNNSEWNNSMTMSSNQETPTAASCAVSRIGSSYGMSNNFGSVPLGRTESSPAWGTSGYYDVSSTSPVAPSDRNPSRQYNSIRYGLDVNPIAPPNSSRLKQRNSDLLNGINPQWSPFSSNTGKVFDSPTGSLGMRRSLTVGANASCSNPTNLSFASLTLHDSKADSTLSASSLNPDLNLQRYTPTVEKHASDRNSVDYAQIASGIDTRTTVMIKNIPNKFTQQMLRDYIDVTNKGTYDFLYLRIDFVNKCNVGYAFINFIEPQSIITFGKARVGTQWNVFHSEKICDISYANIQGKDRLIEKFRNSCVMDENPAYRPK

SNRPB2 (Meleagris gallopavo), sequence (G1N364 entry or part of it): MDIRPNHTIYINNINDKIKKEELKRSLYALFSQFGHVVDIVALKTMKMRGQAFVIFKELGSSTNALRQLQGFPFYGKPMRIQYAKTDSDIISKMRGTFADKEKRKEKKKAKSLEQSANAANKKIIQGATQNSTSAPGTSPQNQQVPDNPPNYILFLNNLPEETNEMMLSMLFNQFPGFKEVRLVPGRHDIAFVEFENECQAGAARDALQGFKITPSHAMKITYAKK
HNRNPC (Homo sapiens), sequence (P07910 1-131): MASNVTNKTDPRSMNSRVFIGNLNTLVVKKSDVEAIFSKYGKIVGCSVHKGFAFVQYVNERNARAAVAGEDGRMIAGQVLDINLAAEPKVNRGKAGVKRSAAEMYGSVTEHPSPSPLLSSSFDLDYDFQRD
u2af2b (Danio rerio), sequence (A0ACM8Q3Q6 entry or part of it): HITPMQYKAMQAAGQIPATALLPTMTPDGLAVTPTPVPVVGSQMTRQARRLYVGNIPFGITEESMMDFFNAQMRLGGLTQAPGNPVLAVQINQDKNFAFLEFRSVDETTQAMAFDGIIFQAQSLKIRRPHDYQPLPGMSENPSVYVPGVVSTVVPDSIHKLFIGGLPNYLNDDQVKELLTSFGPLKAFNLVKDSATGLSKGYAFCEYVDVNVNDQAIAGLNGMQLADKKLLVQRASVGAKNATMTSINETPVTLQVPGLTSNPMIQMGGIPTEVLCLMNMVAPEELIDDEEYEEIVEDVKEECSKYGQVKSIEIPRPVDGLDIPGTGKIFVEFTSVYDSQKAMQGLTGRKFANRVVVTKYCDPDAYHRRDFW

## UAGGAA [RNAcompete motif RNCMPT00430]
[1]
  binding signal (z-score (mean of top ten 7-mers)): 8.55

## UGGAGNG [RNAcompete motif RNCMPT00403]
[2]
  binding signal (z-score (mean of top ten 7-mers)): 10.9

## UUGCAC [RNAcompete motif RNCMPT00425]
[3]
  binding signal (z-score (mean of top ten 7-mers)): 7.95

## UUNUUUU [RNAcompete motif RNCMPT00421]
[4]
  binding signal (z-score (mean of top ten 7-mers)): 11.9

## UUUUUC [RNAcompete motif RNCMPT00418]
u2af2b (Danio rerio)
  binding signal (z-score (mean of top ten 7-mers)): 14.4

## UUUUUU [RNAcompete motif RNCMPT00025]
HNRNPC (Homo sapiens)
  binding signal (z-score (mean of top ten 7-mers)): 15.8

## UUUUUUA [RNAcompete motif RNCMPT00434]
[5]
  binding signal (z-score (mean of top ten 7-mers)): 13.2

## UUUUUUC [RNAcompete motif RNCMPT00414]
[6]
  binding signal (z-score (mean of top ten 7-mers)): 11.9

## UUUUUUG [RNAcompete motif RNCMPT00413]
[7]
  binding signal (z-score (mean of top ten 7-mers)): 14.2
